This is an account of results in patent US12630850B2, “Enzymatic break down of chlorogenic acid in sunflower-containing products” (Chapman University, priority 2022, dated 2026).

“And” between values parts separate entries of the source, which are not always exact repeats. Equal entries are not always repeated. Where two headings read alike, the source gives them in different places.

Data set [1] in a line: Michaelis-Menten assay of CGA hydrolysis in buffer (absorption spectroscopy). It counts as biochemical. Conditions: for kcat: CGA in buffer, room temperature. As to the method: Enzymatic assays to determine Michaelis-Menten parameters. Michaelis-Menten assays were conducted at 21° C. using an Agilent Technologies Cary 60 UV-Vis spectrophotometer. A stock solution of CGA was prepared by dissolving CGA in 50 mM HEPES pH 8.0 followed by calculation of concentration using the Lambert-Beer law with an extinction coefficient of 17,194 M^−1 cm^−1 at 330 nm. Subsequent dilutions of stock CGA were prepared to achieve final CGA concentrations of 0.02 mM, 0.04 mM, 0.06 mM, 0.10 mM, 0.20 mM, and 0.40 mM CGA. The final CGA esterase concentration in all enzymatic assays was 10 nM unless noted otherwise. All samples used for enzymatic assays were buffered in 50 mM HEPES, pH 8.0. Absorption scans were taken at 0.05 or 0.1 min intervals for 2 min between wavelengths of 250 nm and 400 nm. For CGA concentrations below 0.1 mM, the pathlength was 1 cm. Above 0.1 mM CGA, the pathlength was 0.5 cm.
To measure CGA depletion (Δ[CGA]), Equation 1 was used: […]
A is the absorbance at any time point in the reaction, Ao is the initial absorbance, εCA and εCGA are the extinction coefficients at 340 nm of caffeic acid (CA) and CGA, which are 4.15 mM^−1 cm^−1 and 14.43 mM^−1 cm^−1, respectively. To generate initial rates, (Δ[CGA]| was plotted against time. The change in absorbance during the first minute of the reaction was fit to a linear curve, which is used to generate the reaction rate. We note that the rate of CGA depletion is equivalent to CA formation. To test the effect of salt on enzyme kinetics, the same procedure was used, except that the experiment was run with 0.04 mM CGA buffered in 50 mM HEPES pH 8.0 with 500 mM NaCl.
Temperature-dependence measurements. A circulating water bath was used to run enzymatic reactions at different temperatures to maintain the temperature in the spectrophotometer within 1° C. of the target temperature. Buffered solution, CGA, and CGA esterase samples were pre-incubated for 10 min at the desired temperature before starting a measurement. All other instrument parameters were the same as for room temperature measurements described above.

Data set [2] is described as follows: Circular dichroism thermal and pH stability. It counts as physicochemical. As to the method:
Circular dichroism, dynamic light scattering and mass spectrometry. Circular dichroism (CD) spectra were taken on a Jasco J-1500 CD spectrophotometer. CGA esterase (0.2 mg mL^−1) was buffered in a solution of approximately 5 mM HEPES, pH 8.0. Spectra were recorded at 4° C. using the following settings: 100 nm min^−1 scan rate, 0.2 nm data pitch, 1.0 nm bandwidth, and 2 s integration time. Five acquisitions were averaged per experimental sample. […] The Tm was estimated by fitting a Boltzmann sigmoidal function to the denaturation curve. For CD spectra that were run at different pH, a concentrated CGA esterase stock solution was diluted to either 0.2 mg mL^−1 or 0.1 mg mL^−1 into solutions of 10 mM buffer at the pH indicated.

Data set [3] is described as follows: HPLC quantification of CGA in sunflower butter cookies. It counts as biochemical. Conditions: SFB cookies; both levels, 1.72×10^−1 and 1.72×10^−2 mg/g butter. The text has this:
Cookie formulations and baking conditions. The cookie dough formulation consisted of baking soda (2.2 g), salt (2.2 g), whole egg (46.8 g), maple syrup (76.3 g), vanilla extract (2.2 g), flour (145.8 g), and butter (87.5 g). CGA esterase treatments in SFF, utilized almond butter instead of SFB. The wet (sunflower or almond butter, maple syrup, eggs, and vanilla extract) and dry (flour, baking soda, and salt) ingredients were mixed separately and subsequently combined and mixed for 75 s with an electric hand mixer. The dough was rolled out and cut to the following dimensions: 6 mm thickness and 40 mm diameter. Cookies were baked for 7 min in a convection oven preheated to 149° C. (300° F.) and allowed to cool at room temperature for 10 min before further analysis.
Preparation of sunflower butter cookies with chlorogenic acid/CGA esterase. […]
High-performance liquid chromatography (HPLC) quantification of phenolic content in sunflower cookies. […] The extract was filtered through 0.20 μm syringe filters and analyzed with an Agilent 1260 Infinity II system (Agilent Technologies) equipped with a quaternary pump (G7111B), vial sampler (G7129A), and diode array detector (HS G7117C). […] CGA and caffeic acid concentrations were detected at 320 nm and quantified using a standard curve between 0.00-0.10 mg ml^−1 CGA (y=172287x, R^2=0.994) and caffeic acid (y=248557x, R^2=0.967).

For data set [4] the following is noted: Song & Baik, 2017; cited from earlier work.
[5] abbreviates: CGA in 50 mM HEPES pH 8.0, 20° C.

B1: CGA esterase: CGA esterase from L. helveticus (Genbank ID: WP_025283955.1, Uniprot ID: U6F2K7), expressed in Escherichia coli; the dimer is the active form (protein, listed as Lactobacillus helveticus)
chain: MSRITIERDGLTLVGDREEPFGEIYDMAIIMHGFAANRNTDLLRQIADDLRDENVASVRFDFNGHGESDGKFEDMTVCNEIADGKAILDYVRTDPHVRDIFLVGHSQGGVVASMLAGLYPDVVKKVVLLAPAAQLKDDALRSNTQGATYDPNHIPDWPLVGNKLGMKLGGFYLRTAQVLPIYEVSQCFTRPVSVIAGTNDQWDPKYAKKYDEVYENSELHMIPNADHRFSGGYKDMAADLTAQFLKPAF
The term Km denotes the concentration of substrate that gives half-maximal velocity. For orientation: Vmax means the top rate of the reaction or transport when substrate is in excess. As usually defined, the kcat is the maximal rate divided by the concentration of active sites. The term Tm denotes the temperature at which the thermal transition is half complete. For B1, the “Temperature until which the enzyme is active” value in data set [1] is “at least 50 °C”. For the same molecule, the “Change of CGA esterase activity with temperature” value in data set [1] (20° C. to 50° C.) was “increases only weakly”. In addition, the figures for the Km in data set [1] (40° C.), in data set [1] (setting [5]) and in data set [4] were 96 ± 6 µM, 90 ± 38 µM and 153 µM, respectively. Further, the maximum rate (Vmax) in data set [1] (40° C.) was 215.4 ± 31.7 mM/min/mg; in data set [1] (setting [5]), 170.2 ± 32.3 mM/min/mg; in data set [1] (CGA in 50 mM HEPES pH 8.0, 20° C., listed as L. helveticus), 170.2 mM/min/mg; in data set [4] it was 0.5596 mM/min/mg. For the same molecule, the kcat was 82 s⁻¹ and 82 ± 15.6 s⁻¹ in data set [1]; 82 s⁻¹ in data set [1] (listed as L. helveticus CGA esterase); 82 s⁻¹ in data set [1] (listed as chlorogenic acid esterase from Lactobacillus helveticus). For the same molecule, the “Vmax higher than previously reported” value in data set [1] (vs Song & Baik, 2017) turned out to be 300 fold. Further, the Tm in data set [2] (CD signal at 222 nm, thermal denaturation) stood at 65 °C. Further, the “pH range over which the protein is stable (CD spectra)” value in data set [2] (room temperature (21° C.)) is given as 6.0-9.0 pH. In data set [3], the “Decrease of CGA concentration” value was 90-95%.
